Measured values published in publication PMC3565990.

Target: SHP-1 (UniProt P29351)
Assay: anti-FLAG IP, anti-SHP-1 Western blot
Settings: reference: wild-type CD72fl, NP-BSA stimulated; sites Y7

binding against the reference: lost
Substance: human CD72fl (FLAG-tagged) (from UniProt P21854) CD72flYF (Y7F), NP-BSA stimulated
